Two substances from publication PMC11821526 can be followed below.

In assay [1] the target is pep3 …[X]-CONH2, X = Ala. The assay can be described thus: fluorescence polarisation; FBXO31–SKP1 complex (0–5 µM) titrated to fluorescein-labelled peptide (2–10 nM); 25 mM HEPES, 150 mM NaCl, pH 7.5; room temperature, 30 min; one-site fit, n = 3 parallel experiments. Background: Polarisation of emitted light reports the rotation of a fluorescent probe.
Assay [2] concerns the target pep3 …[X]-CONH2, X = Arg. The assay is described as above.
For assay [3], the target named is pep3 …[X]-CONH2, X = Cys. The description is as above.
The target of assay [4] is pep3 …[X]-CONH2, X = Glu. The description is as above.
Assay [5] deals with pep3 …[X]-CONH2, X = Gly. The description is as above.
The target of assay [6] is pep3 …[X]-CONH2, X = His. The assay is described as above.
Assay [7] addresses pep3 …[X]-CONH2, X = Ile. The assay is described as above.
Assay [8] concerns the target pep3 …[X]-CONH2, X = Leu. The assay is described as above.
The target of assay [9] is pep3 …[X]-CONH2, X = Lys. The assay is described as above.
The target in assay [10] is pep3 …[X]-CONH2, X = Met. The assay is described as above.
Assay [11] has as its target pep3 …[X]-CONH2, X = Pro. Described as above.
Assay [12] concerns the target pep3 …[X]-CONH2, X = Ser. Described as above.
Assay [13] concerns the target pep3 …[X]-CONH2, X = Thr. The description is as above.
Assay [14] concerns the target pep3 …[X]-CONH2, X = Trp. The description is as above.
The target of assay [15] is pep3 …[X]-CONH2, X = Tyr. The assay is described as above.
The target in assay [16] is pep3 …[X]-CONH2, X = Val. The description is as above.
For assay [17], the target named is pep3 with terminal Asn amide (…-CONH2). The assay can be described thus: fluorescence polarisation; FBXO31–SKP1 complex (0–5 µM) titrated against fluorescein-labelled peptides (2–10 nM); 25 mM HEPES, 150 mM NaCl, pH 7.5, room temperature, 30 min; one-site fit; constants of the highest affinity probes only approximate.
Assay [18] deals with pep3 with terminal Asp amide (…-CONH2). Described as above.
The target in assay [19] is pep3 with terminal Gln amide (…-CONH2). The assay is described as above.
Assay [20] deals with pep3 with terminal Phe amide (…-CONH2). The assay is described as above.

pKd: −log10 of the molar value.

What is called pKd is −log10 of the Kd, conventionally taken in molar units. “FBXO31–SKP1 complex (StrepII-FBXO31.1(∆1–65) with SKP1(A2P,∆38–43,∆71–82)) (from UniProt Q5XUX0 66-539; P63208 1-163)”: the pKd is 7.26 in assay [1]; 7.15 in assay [2]; 7.70 in [3]; 6.99 in [4]; 6.86 in assay [5]; 7.88 in assay [6]. Further, the pKd in assay [7] is 7.49; in assay [8], 7.38; in [9], 7.03; in assay [10], 7.68; in [11], 7.23; in [12], 7.30. Further, the pKd is 7.38 in assay [13], 7.42 in assay [14], 7.59 in assay [15] and 7.36 in assay [16].
“recombinant FBXO31–SKP1 complex (wild type) (from UniProt Q5XUX0 66-539; P63208 1-163)”: the pKd in assay [17] was 7.62; in [18], 6.52; in [19] it was 7.26; in assay [20], 8.22.
